Data as given in the Human Domainome abundance scans (Beltran et al. 2025).

B1: Pituitary-specific positive transcription factor 1, residues 130 to 198; numbered along this chain, P28069 (parent)
chain: RELEKFANEFKVRRIKLGYTQTNVGEALAAVHGSEFSQTTICRFENLQLSFKNACKLKAILSKWLEEAE

Variants of: B1
Assay: abundance fitness (aPCA) (normalised: wild type 0, dead -1); higher = more abundant; growth selection in yeast, the domain comes from the species named
Details: Homo sapiens

Abundance fitness, by site and new letter:
L61: G -0.757, Q -0.78, P -0.728, T -0.778, F -0.536, M -0.491, S -0.815, Y -0.759, E -0.604, I -0.841, C -0.379, R -1.04, K -0.572, D -0.788
F51: A -0.174, R -0.161, K -0.11, Y 0.034, S -0.189, T -0.07, N -0.342, Q -0.061, C -0.534, L -0.19, V 0.021, H 0.077, E 0.144, I -0.1, P -0.142, M -0.156, D -0.001, G -0.39, W -0.042
S62: A -0.015, F -0.059, T 0.014, P -0.909, V -0.167, C -0.3, G -0.239, Y -0.585, I 0.001, H -0.127, E 0.016, L -0.144, W -0.009, Q 0.047, R -0.377, N -0.438, K -0.3
L65: N -0.955, A -0.772, P -0.752, M -0.374, D -0.85, S -0.636, E -0.779, F -0.884, W -0.719, I 0.105, G -0.791, V -0.38, Y -0.833, H -0.887, K -0.75, R -0.748, T -0.935
Q48: M -0.505, V -0.574, P -0.506, S -0.389, H -0.66, T -0.177, I -0.758, F -0.889, K -0.476, A -0.629, Y -0.79, W -0.915, L -0.406, E -0.003, G -0.673, D -0.055, R -0.331, C -0.586
N46: R -0.313, M -0.492, S -0.085, H -0.545, L -0.493, K -0.266, P -0.89, Y -0.732, W -0.851, T -0.579, V -0.661
N53: M 0.058, W -0.271, P -0.115, S 0.115, L -0.001, E 0.355, A 0.107, Q 0, R 0.206, G -0.087, I -0.027, H 0.233, K 0.21, C -0.013, T 0.131, V 0.122
L57: R -0.584, A -0.449, T -0.262, G -0.507, S -0.534, M 0.285, W -0.642, E -0.345, D -0.67, C -0.228, V 0.063, H -0.226, K -0.497, Y -0.156, N -0.72, P -0.89, I 0.013, F -0.126
S50: L -0.57, C -0.459, T -0.206, H -0.168, W -0.126, Y -0.822, N 0.022, D 0.162, A -0.307, M -0.766, G 0.035, V -0.877, Q -0.533, F -0.724, K -0.182, R -0.348, I -0.378
C55: L 0.121, T -0.098, Y 0.012, H -0.099, S 0.024, I 0.046, K -0.153, R -0.294, N -0.201, W -0.14, D 0.188, G -0.395, A -0.207, M 0.145, V 0.15, E -0.07
L47: K -0.064, T -0.667, V -0.888, H 0.164, F -0.562, I -0.866, C 0.155, N 0.187, E -0.635, D -0.689, W -0.789, A -0.204, P -0.804, R -0.065, Y -0.428, M 0.263, S -0.168, G 0.292
E66: G -0.373, A -0.054, D -0.037, I -0.281, F -0.242, K -0.296, C -0.108, H -0.334
W64: V -0.966, L -0.795, A -0.496, K -0.461, T -0.684, F -0.398, C -0.164, R -0.79, S -0.722, Q -0.643, N -0.475, G -0.568
I60: H -0.437, M -0.239, G -0.495, A -0.281, R -0.346, D -0.343, Y -0.347, Q -0.559, L -0.135, K -0.262, W -0.611, S -0.568, N -0.357, C -0.365, T -0.51, V -0.024, E -0.567, P -0.2, F -0.725
A59: E 0.214, N 0.078, G 0.059, M -0.076, Q -0.045, I 0.049, V 0.116, R -0.059, S 0.007, W -0.61, L -0.122, K 0.025, T 0.042, D 0.094, C -0.084, P 0.381, Y -0.298
A54: Q -0.473, M 0.358, L -0.033, V -0.756, C -0.382, Y -0.333, S 0.06, W -0.302, F -0.131, G -0.295, R -0.974
K58: G -0.652, W -0.342, S -0.58, H -0.4, N -0.619, Y -0.511, P -0.708, L -0.848, R -0.184, F -0.933, M -0.151, D -0.652, E -0.738, Q -0.019, I -0.984, A -0.473, T -0.477
L49: G -0.632, P -0.687, V -0.323, S -0.568, H -0.721, I -0.262, F -0.149, A -0.964, N -0.818, M 0.106, E -0.616, Y -0.477, D -0.847, Q -0.749, R -0.862, C -0.208, W -1.15
K63: G -0.153, W -0.589, Q -0.157, S -0.069, Y -0.508, M -0.155, V -0.155, L -0.3, F -0.799, R -0.152, T 0.022, I -0.326, H 0.039, C -0.443, P -0.303, D 0.112, E 0.077, A 0.025
K52: Q 0.022, Y 0.057, N -0.024, V 0.073, W -0.408, C -0.753, G -0.149, I -0.463, P -0.077, E 0.108, T 0.036, R -0.04, D 0.075, L -0.369, H 0.018, A 0.002, S -0.002
K56: V -0.135, F -0.554, E -0.132, H -0.34, P -0.626, G -0.341, S -0.23, T -0.307, R 0.005, D -0.366, M -0.268, W -0.533, N -0.131, Q -0.074, L -0.466, C -0.505, A -0.226
